Experiments:
[1] = target: T1, TALE-TelR15 Green-Lysine labelled, no FP (artificial); assay: fixed U2OS cells, compared with the mCherry fusion; settings: tags: internal lysines labelled with green dye (Promega), pET30a vector
T1 chain: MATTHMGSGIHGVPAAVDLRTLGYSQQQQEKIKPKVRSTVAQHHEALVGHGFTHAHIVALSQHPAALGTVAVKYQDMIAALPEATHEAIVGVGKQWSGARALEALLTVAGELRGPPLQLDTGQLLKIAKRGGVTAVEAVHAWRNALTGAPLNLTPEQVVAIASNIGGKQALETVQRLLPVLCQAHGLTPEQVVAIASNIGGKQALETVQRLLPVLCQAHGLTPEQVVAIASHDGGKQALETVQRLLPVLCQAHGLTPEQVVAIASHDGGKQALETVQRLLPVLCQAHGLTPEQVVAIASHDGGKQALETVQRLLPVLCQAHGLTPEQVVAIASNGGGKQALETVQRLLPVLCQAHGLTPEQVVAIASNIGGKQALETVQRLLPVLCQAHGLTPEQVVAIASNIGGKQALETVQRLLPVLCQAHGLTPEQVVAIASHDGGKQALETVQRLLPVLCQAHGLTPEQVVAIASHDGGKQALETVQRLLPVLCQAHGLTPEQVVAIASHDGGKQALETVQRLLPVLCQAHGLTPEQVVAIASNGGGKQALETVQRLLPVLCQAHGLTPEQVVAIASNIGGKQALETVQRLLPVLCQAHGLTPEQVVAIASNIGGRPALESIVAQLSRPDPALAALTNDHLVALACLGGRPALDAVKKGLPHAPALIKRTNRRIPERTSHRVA

TALE-TelR15 = target: T2, TALE-TelR15 (artificial); assay: methanol-fixed, 2N HCl treated cells, room temperature; signal correlates with telomere length (HeLa 1.3 higher than HeLa S3); settings: tags: fused sfGFP, mTagBFP2, mTFP1, YPet or mCherry (pT7CFE1-His vector)
T2 chain: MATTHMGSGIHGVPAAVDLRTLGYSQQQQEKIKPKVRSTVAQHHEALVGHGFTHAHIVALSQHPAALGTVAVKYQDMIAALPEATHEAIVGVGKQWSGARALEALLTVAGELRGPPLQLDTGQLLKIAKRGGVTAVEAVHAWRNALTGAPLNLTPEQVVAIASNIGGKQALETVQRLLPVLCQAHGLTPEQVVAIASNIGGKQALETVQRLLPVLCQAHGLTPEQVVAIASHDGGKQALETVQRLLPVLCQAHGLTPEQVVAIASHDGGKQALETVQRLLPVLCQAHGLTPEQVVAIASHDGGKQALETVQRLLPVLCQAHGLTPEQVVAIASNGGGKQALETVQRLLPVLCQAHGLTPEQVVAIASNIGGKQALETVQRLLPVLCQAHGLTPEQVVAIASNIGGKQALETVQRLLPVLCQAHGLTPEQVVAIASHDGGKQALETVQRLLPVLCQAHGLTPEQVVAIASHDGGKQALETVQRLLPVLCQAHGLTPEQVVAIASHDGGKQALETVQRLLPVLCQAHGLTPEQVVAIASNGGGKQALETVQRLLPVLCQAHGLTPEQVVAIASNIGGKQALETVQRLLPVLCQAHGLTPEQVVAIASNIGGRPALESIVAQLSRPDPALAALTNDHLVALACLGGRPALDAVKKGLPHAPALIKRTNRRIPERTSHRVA
Description: Cells grown on coverslips were fixed in ice-cold methanol for 10 min at −20° C. All subsequent steps were carried out at room temperature. The fixed cells were incubated with 2N HCl for 5 min and then washed twice with PBS for 5 min each and then incubated with a given TALEColor probe as a 1:10 dilution from the coupled in vitro transcription-translation reactions mixtures for 30 min. The cells were then washed once with PBS for 5 min. Coverslips were mounted in Prolong Antifade (Molecular Probes, Eugene, Oreg.), and images were captured with the fluorescence microscopy system described above.

B1: TelR15 target (dsDNA)
DNA 1: TAACCCTAACCCTAA
DNA 2: TTAGGGTTAGGGTTA
[1]
  binding result: binds
TALE-TelR15
  binding result: binds
